Experimental data taken from patent publication US20120090043A1, “TARGETS FOR RETROVIRUS ASSOCIATED DISEASES” (priority 2009, published 2012).

System: HIV-1 LTR promoter transactivation by HIV-1 Tat
Experiment: Transactivation assay, HIV-1 LTR luciferase reporter with HIV-1 Tat
Type: cell-based
Conditions: HEK293 cells co-transfected with pHIV1LTR-Luc, HIV-1 Tat and the human ORF; relative luciferase activity 24 h post-transfection; positive if >=2 or <=0.5 and p<0.05
Excerpt: The plasmids pHIV1LTR-Luc or pHTLV1LTR-Luc containing a luciferase reporter gene under the control of the HIV-1 or HTLV-1 LTR promoters and plasmids expressing either HIV-1 Tat or HTLV-1 Tax and each human ORF found to interact with viral proteins were transfected into 10^4 HEK293 cells using the calcium phosphate method. Twenty-four hours post-transfection, cells were washed three times with PBS, lysed and luciferase activities determined from two independent transfection experiments in triplicate. We computed a paired t-test to assess the difference of the means between samples with and without the human interactor. For a trial to be considered positive, the relative luciferase activities has to be >=2 or <=0.5, and the p-value of the t-test<0.05.
Many HIV/HTLV-human interactions in our data set (130/212) involved the retroviral transactivator proteins HTLV-1 Tax (57/212), HTLV-2 Tax2 (49/212), HIV-1 Tat (10/212) and HIV-2 Tat (14/212). Human proteins interacting with viral transactivators likely influence Tat or Tax transactivation. Expression vectors encoding human ORFs and HIV-1 Tat or HTLV-1 Tax proteins were tested in a transactivation reporter assay against reporter plasmids harboring HIV-1 or HTLV-1 viral promoter sequences cloned upstream of the luciferase reporter gene. In the controls Tat or Tax respectively activated HIV or HTLV LTR-directed gene expression. Co-transfection of interacting human ORFs identified 71 proteins (54% of the 131 human targets in our data set) that regulated HIV (26.7% of targets), HTLV (37.4% of targets) or both (9.9% of targets) LTR promoter activation by Tat or Tax (see Tables 7 and 8; Table 13 below containing quantitative data on the regulation of transactivation). Wherever not expressly specified, constructs used herein were generally made by sub-cloning entry clones from the ORFeome V3.1 into suitable destination vectors.

B1: PDE9A: human host interactor protein, Gene ID 5152, expressed from transfected ORF vector (protein)
chain: MGSGSSSYRPKAIYLDIDGRIQKVIFSKYCNSSDIMDLFCIATGLPRNTTISLLTTDDAMVSIDPTMPANSERTPYKVRPVAIKQLSAGVEDKRTTSRGQSAERPLRDRRVVGLEQPRREGAFESGQVEPRPREPQGCYQEGQRIPPEREELIQSVLAQVAEQFSRAFKINELKAEVANHLAVLEKRVELEGLKVVEIEKCKSDIKKMREELAARSSRTNCPCKYSFLDNHKKLTPRRDVPTYPKYLLSPETIEALRKPTFDVWLWEPNEMLSCLEHMYHDLGLVRDFSINPVTLRRWLFCVHDNYRNNPFHNFRHCFCVAQMMYSMVWLCSLQEKFSQTDILILMTAAICHDLDHPGYNNTYQINARTELAVRYNDISPLENHHCAVAFQILAEPECNIFSNIPPDGFKQIRQGMITLILATDMARHAEIMDSFKEKMENFDYSNEEHMTLLKMILIKCCDISNEVRPMEVAEPWVDCLLEEYFMQSDREKSEGLPVAPFMDRDKVTKATAQIGFIKFVLIPMFETVTKLFPMVEEIMLQPLWESRDRYEELKRIDDAMKELQKKTDSLTSGATEKSRERSRDVKNSEGDCA
HIV_LTR transactiv.: 0.28 fold change

B2: MIZF: human host interactor protein, Gene ID 25988, expressed from transfected ORF vector (protein)
chain: MPPPGKVPRKENLWLQCEWGSCSFVCSTMEKFFEHVTQHLQQHLHGSGEEEEEEEEDDPLEEEFSCLWQECGFCSLDSSADLIRHVYFHCYHTKLKQWGLQALQSQADLGPCILDFQSRNVIPDIPDHFLCLWEHCENSFDNPEWFYRHVEAHSLCCEYEAVGKDNPVVLCGWKGCTCTFKDRSKLREHLRSHTQEKVVACPTCGGMFANNTKFLDHIRRQTSLDQQHFQCSHCSKRFATERLLRDHMRNHVNHYKCPLCDMTCPLPSSLRNHMRFRHSEDRPFKCDCCDYSCKNLIDLQKHLDTHSEEPAYRCDFENCTFSARSLCSIKSHYRKVHEGDSEPRYKCHVCDKCFTRGNNLTVHLRKKHQFKWPSGHPRFRYKEHEDGYMRLQLVRYESVELTQQLLRQPQEGSGLGTSLNESSLQGIILETVPGEPGRKEEEEEGKGSEGTALSASQDNPSSVIHVVNQTNAQGQQEIVYYVLSEAPGEPPPAPEPPSGGIMEKLQGIAEEPEIQMV
HIV_LTR transactiv.: 2.50 fold change

B3: NKAP: human host interactor protein, Gene ID 79576, expressed from transfected ORF vector (protein)
chain: MAPVSGSRSPDREASGSGGRRRSSSKSPKPSKSARSPRGRRSRSHSCSRSGDRNGLTHQLGGLSQGSRNQSYRSRSRSRSRERPSAPRGIPFASASSSVYYGSYSRPYGSDKPWPSLLDKEREESLRQKRLSERERIGELGAPEVWGLSPKNPEPDSDEHTPVEDEEPKKSTTSASTSEEEKKKKSSRSKERSKKRRKKKSSKRKHKKYSEDSDSDSDSETDSSDEDNKRRAKKAKKKEKKKKHRSKKYKKKRSKKSRKESSDSSSKESQEEFLENPWKDRTKAEEPSDLIGPEAPKTLTSQDDKPLNYGHALLPGEGAAMAEYVKAGKRIPRRGEIGLTSEEIASFECSGYVMSGSRHRRMEAVRLRKENQIYSADEKRALASFNQEERRKRENKILASFREMVYRKTKGKDDK
HIV_LTR transactiv.: 2.68 fold change

B4: MLLT11: human host interactor protein, Gene ID 10962, expressed from transfected ORF vector (protein)
chain: MRDPVSSQYSSFLFWRMPIPELDLSELEGLGLSDTATYKVKDSSVGKMIGQATAADQEKNPEGDGLLEYSTFNFWRAPIASIHSFELDLL
HIV_LTR transactiv.: 3.41 fold change

B5: PIAS2: human host interactor protein, Gene ID 9063, expressed from transfected ORF vector (protein)
chain: MADFEELRNMVSSFRVSELQVLLGFAGRNKSGRKHDLLMRALHLLKSGCSPAVQIKIRELYRRRYPRTLEGLSDLSTIKSSVFSLDGGSSPVEPDLAVAGIHSLPSTSVTPHSPSSPVGSVLLQDTKPTFEMQQPSPPIPPVHPDVQLKNLPFYDVLDVLIKPTSLVQSSIQRFQEKFFIFALTPQQVREICISRDFLPGGRRDYTVQVQLRLCLAETSCPQEDNYPNSLCIKVNGKLFPLPGYAPPPKNGIEQKRPGRPLNITSLVRLSSAVPNQISISWASEIGKNYSMSVYLVRQLTSAMLLQRLKMKGIRNPDHSRALIKEKLTADPDSEIATTSLRVSLMCPLGKMRLTIPCRAVTCTHLQCFDAALYLQMNEKKPTWICPVCDKKAAYESLILDGLFMEILNDCSDVDEIKFQEDGSWCPMRPKKEAMKVSSQPCTKIESSSVLSKPCSVTVASEASKKKVDVIDLTIESSSDEEEDPPAKRKCIFMSETQSSPTKGVLMYQPSSVRVPSVTSVDPAAIPPSLTDYSVPFHHTPISSMSSDLPGLDFLSLIPVDPQYCPPMFLDSLTSPLTASSTSVTTTSSHESSTHVSSSSSRSETGVITSSGSNIPDIISLD
HIV_LTR transactiv.: 0.42 fold change

B6: KRT15: human host interactor protein, Gene ID 3866, expressed from transfected ORF vector (protein)
chain: MTTTFLQTSSSTFGGGSTRGGSLLAGGGGFGGGSLSGGGGSRSISASSARFVSSGSGGGYGGGMRVCGFGGGAGSVFGGGFGGGVGGGFGGGFGGGDGGLLSGNEKITMQNLNDRLASYLDKVRALEEANADLEVKIHDWYQKQTPTSPECDYSQYFKTIEELRDKIMATTIDNSRVILEIDNARLAADDFRLKYENELALRQGVEADINGLRRVLDELTLARTDLEMQIEGLNEELAYLKKNHEEEMKEFSSQLAGQVNVEMDAAPGVDLTRVLAEMREQYEAMAEKNRRDVEAWFFSKTEELNKEVASNTEMIQTSKTEITDLRRTMQELEIELQSQLSMKAGLENSLAETECRYATQLQQIQGLIGGLEAQLSELRCEMEAQNQEYKMLLDIKTRLEQEIATYRSLLEGQDAKMAGIAIREASSGGGGSSSNFHINVEESVDGQVVSSHKREI
HIV_LTR transactiv.: 0.33 fold change

B7: HOXD3: human host interactor protein, Gene ID 3232, expressed from transfected ORF vector (protein)
chain: MLFEQGQQALELPECTMQKAAYYENPGLFGGYGYSKTTDTYGYSTPHQPYPPPAAASSLDTDYPGSACSIQSSAPLRAPAHKGAELNGSCMRPGTGNSQGGGGGSQPPGLNSEQQPPQPPPPPPTLPPSSPTNPGGGVPAKKPKGGPNASSSSATISKQIFPWMKESRQNSKQKNSCATAGESCEDKSPPGPASKRVRTAYTSAQLVELEKEFHFNRYLCRPRRVEMANLLNLTERQIKIWFQNRRMKYKKDQKAKGILHSPASQSPERSPPLGGAAGHVAYSGQLPPVPGLAYDAPSPPAFAKSQPNMYGLAAYTAPLSSCLPQQKRYAAPEFEPHPMASNGGGFASANLQGSPVYVGGNFVESMAPASGPVFNLGHLSHPSSASVDYSCAAQIPGNHHHGPCDPHPTYTDLSAHHSSQGRLPEAPKLTHL
HIV_LTR transactiv.: 7.30 fold change

B8: MINA: human host interactor protein, Gene ID 84864, expressed from transfected ORF vector (protein)
chain: MPKKAKPTGSGKEEGPAPCKQMKLEAAGGPSALNFDSPSSLFESLISPIKTETFFKEFWEQKPLLIQRDDPALATYYGSLFKLTDLKSLCSRGMYYGRDVNVCRCVNGKKKVLNKDGKAHFLQLRKDFDQKRATIQFHQPQRFKDELWRIQEKLECYFGSLVGSNVYITPAGSQGLPPHYDDVEVFILQLEGEKHWRLYHPTVPLAREYSVEAEERIGRPVHEFMLKPGDLLYFPRGTIHQADTPAGLAHSTHVTISTYQNNSWGDFLLDTISGLVFDTAKEDVELRTGIPRQLLLQVESTTVATRRLSGFLRTLADRLEGTKELLSSDMKKDFIMHRLPPYSAGDGAELSTPGGKLPRLDSVVRLQFKDHIVLTVLPDQDQSDEAQEKMVYIYHSLKNSRETHMMGNEEETEFHGLRFPLSHLDALKQIWNSPAISVKDLKLTTDEEKESLVLSLWTECLIQVV
HIV_LTR transactiv.: 0.40 fold change

B9: LOC541468: human host interactor protein, Gene ID 541468, expressed from transfected ORF vector (protein)
chain: MEGTVESQTPDLRDVEGKVGRKTPEGLLRGLRGECELGTSGALLLPGASSTGHDLGDKIMALKMELAYLRAIDVKILQQLVTLNEGIEAVRWLLEERGTLTSHCSSLTSSQYSLTGGSPGRSRRGSWDSLPDTSTTDRLDSVSIGSFLDTVAPSELDEQGPPGAPRSEMDWAKVIAGGERARTEVDVAATRLGSLRAVWKPPGERLQGGPPESPEDESAKLGFEAHWFWEQCQDDVTFL
HIV_LTR transactiv.: 2.38 fold change
